Source: paper PMC9410886

Biological target: mouse mammary tumor virus (MMTV) integrase (IN) (mouse mammary tumor virus (MMTV))
Assay: cryo-EM structure; octameric MMTV STC intasome: IN assembled on branched DNA, purified on Superdex 200 in 25 mM Tris-HCl pH 7.4, 200 mM NaCl, 2 mM DTT, 25 uM ZnCl2, 10 mM CaCl2; C2 symmetry, 3.5 Å global resolution

With “mouse mammary tumor virus (MMTV) integrase (IN) (enzyme)” the stoichiometry N was 8.
